Numbered stars: 1 amine (or outer) side, 2 acyl side, 3 side chain; on linkers, the order of the positions; unused ones are H or OH. Bridge positions count the residues as written; N and C are the ends. Side chains are listed from the residue outwards. Ends that are not written are not given here. * marks the point of attachment. C20 diacid = O=C(O)CCCCCCCCCCCCCCCCCCC(=O)*; γGlu = O=C(O)[C@H](CCC(=O)[*:2])N[*:1]

The assay has as its target T1, human calcitonin receptor (human, UniProt P30988 25-474).
T1 construct: whole, on cells; Assayed as cell membranes of BHK tk'ts 13 cells stably transfected with the human calcitonin receptor (Assay VII); also called hCTR; hCT
T1 sequence (looked up): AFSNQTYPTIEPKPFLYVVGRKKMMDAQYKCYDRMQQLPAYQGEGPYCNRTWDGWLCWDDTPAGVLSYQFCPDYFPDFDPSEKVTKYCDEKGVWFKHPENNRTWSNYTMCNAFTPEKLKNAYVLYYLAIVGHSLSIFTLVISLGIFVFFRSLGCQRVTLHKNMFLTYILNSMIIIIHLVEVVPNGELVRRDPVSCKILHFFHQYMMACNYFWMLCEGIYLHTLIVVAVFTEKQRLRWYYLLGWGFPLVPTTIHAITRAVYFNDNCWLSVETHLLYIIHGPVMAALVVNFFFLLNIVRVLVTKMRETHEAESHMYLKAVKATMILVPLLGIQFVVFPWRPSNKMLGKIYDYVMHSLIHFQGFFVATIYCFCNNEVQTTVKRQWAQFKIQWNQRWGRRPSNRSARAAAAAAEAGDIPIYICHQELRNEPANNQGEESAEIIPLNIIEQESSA
The assay can be described thus: SPA competition vs 125I-calcitonin, membranes of BHK cells with human calcitonin receptor (Assay VII). As for the experimental part: Membranes were prepared in the following way; the cells were rinsed with PBS and incubated with Versene for approximately 5 min before harvesting. The cells were flushed with PBS and the cell-suspension was centrifuged for 5 min at 1000 rpm. Cells were homogenized (Ultrathurrax) in a buffer containing 20 mM Na-HEPES and 10 mM EDTA (pH 7.4) and centrifuged at 20.000 rpm for 15 min. The resulting pellet was resuspended, homogenized and centrifuged (20.000 rpm, 15 min) in a buffer containing 20 mM Na-HEPES and 0.1 mM EDTA (pH 7.4, buffer 2). The resulting pellet was resuspended in buffer 2 and protein concentration was measured (BCA protein Assay, Pierce). The homogenate was kept cold during the whole procedure. The membranes were kept at −80° C. until use. Assay was performed in a 384 well Optiplate (PerkinElmer) in a total volume of 40 ul. Membranes were mixed with SPA beads. Final concentration of membranes 35 ng/μL final and Final concentration of SPA beads was 0.05 mg/well. Test-compounds were dissolved in DMSO and further diluted in assay buffer (50 mM Hepes, pH 7.4, 1 mM CaCl2, 5 mM MgCl₂, 0.1% OA and 0.02% Tween20). […] The final mixture was incubated for 120 min with shaking at 400 rpm at 25° C. prior to centrifugation (1500 rpm, 10 min). Samples were analyzed on TopCounter™ (Packard). The […] was calculated using (one site binding competition analysis) GraphPad Prism5 as a measure of receptor affinity.

B1: N^ε1-[(4S)-4-carboxy-4-[[(4S)-4-carboxy-4-(19-carboxynonadecanoylamino)butanoyl]amino]butanoyl]-[Asp14,Arg17,Pro21,Pro27,Arg35]-h-amylin (peptide)
peptide: K([γGlu-γGlu-C20 diacid])CNTATCATQRLADFLRHSSPNFGAIPSSTNVGSRTY-NH2
modifications: disulfide 2-7; N-terminus assumed
SMILES: CC[C@H](C)[C@H](NC(=O)[C@H](C)NC(=O)CNC(=O)[C@H](Cc1ccccc1)NC(=O)[C@H](CC(N)=O)NC(=O)[C@@H]1CCCN1C(=O)[C@H](CO)NC(=O)[C@H](CO)NC(=O)[C@H](Cc1c[nH]cn1)NC(=O)[C@H](CCCNC(=N)N)NC(=O)[C@H](CC(C)C)NC(=O)[C@H](Cc1ccccc1)NC(=O)[C@H](CC(=O)O)NC(=O)[C@H](C)NC(=O)[C@H](CC(C)C)NC(=O)[C@H](CCCNC(=N)N)NC(=O)[C@H](CCC(N)=O)NC(=O)[C@@H](NC(=O)[C@H](C)NC(=O)[C@@H]1CSSC[C@H](NC(=O)[C@@H](N)CCCCNC(=O)CC[C@H](NC(=O)CC[C@H](NC(=O)CCCCCCCCCCCCCCCCCCC(=O)O)C(=O)O)C(=O)O)C(=O)N[C@@H](CC(N)=O)C(=O)N[C@@H]([C@@H](C)O)C(=O)N[C@@H](C)C(=O)N[C@@H]([C@@H](C)O)C(=O)N1)[C@@H](C)O)C(=O)N1CCC[C@H]1C(=O)N[C@@H](CO)C(=O)N[C@@H](CO)C(=O)N[C@H](C(=O)N[C@@H](CC(N)=O)C(=O)N[C@H](C(=O)NCC(=O)N[C@@H](CO)C(=O)N[C@@H](CCCNC(=N)N)C(=O)N[C@H](C(=O)N[C@@H](Cc1ccc(O)cc1)C(N)=O)[C@@H](C)O)C(C)C)[C@@H](C)O
notes: also called compound 52
Take B1: the IC50 (usually the point on the concentration scale where inhibition reaches its midpoint) worked out at 56.9 nM.
